Assay results as given in publication PMC8324831, “A synthetic nanobody targeting RBD protects hamsters from SARS-CoV-2 infection” (Nature Communications, 2021).
Where a chain is given by its changes, count along the chain named.

Assays:
[1] = target: SARS-CoV-2 S-RBD with Avi-tag and deca-His tag (residues 330-531) (SARS-CoV-2, UniProt P0DTC2 330-531); test: cell-based or functional assay
[2] = target: T1, SARS-CoV-2 S-RBD with Avi-tag and deca-His tag (residues 330-531) (SARS-CoV-2, UniProt P0DTC2, biotin on the Avi tag (BirA) where immobilised on streptavidin sensors or used in ELISA and FSEC); test: BLI; Octet RED96; biotinylated RBD immobilised on SA sensor; sybodies as analytes; 30 °C; 0.005% Tween 20, 150 mM NaCl, 20 mM Tris HCl pH 8.0; fitted for 1:1 stoichiometry; details: both partners purified
[3] = target: T1, SARS-CoV-2 S-RBD with Avi-tag and …; test: SEC; details: one partner purified
[4] = target: T1, SARS-CoV-2 S-RBD with Avi-tag and …; test: cell-based or functional assay
[5] = target: SARS-CoV-2 S-RBD for crystallization (residues 330-531, Avi-tag and His-tag removed by 3C protease) (SARS-CoV-2, Wuhan-Hu-1 reference …, UniProt P0DTC2); test: crystal structure; details: both partners purified
[6] = target: T1, SARS-CoV-2 S-RBD with Avi-tag and …; test: ELISA; Myc-tagged sybody from lysate captured by anti-Myc antibody on protein A-coated plate; 50 nM biotinylated RBD added; streptavidin-HRP; room temperature, TBST; details: one partner purified

B1: Fc-MR3 (Fc fusion)
chain: GSSSQVQLVESGGGLVQAGGSLRLSCAASGFPVNAHFMYWYRQAPGKEREWVAAIYSYGRTLYADSVKGRFTISRDNAKNTVYLQMNSLKPEDTAVYYCNVKDYGAASWEYDYWGQGTQVTVSERKCCVECPPCPAPPVAGPSVFLFPPKPKDTLMISRTPEVTCVVVDVSHEDPEVQFNWYVDGVEVHNAKTKPREEQFNSTFRVVSVLTVVHQDWLNGKEYKCKVSNKGLPAPIEKTISKTKGQPREPQVYTLPPSREEMTKNQVSLTCLVKGFYPSDIAVEWESNGQPENNYKTTPPMLDSDGSFFLYSKLTVDKSRWQQGNVFSCSVMHEALHNHYTQKSLSLSPGK
For B1, which “IC50 of neutralisation of SARS-CoV-2 S pseudovirus on VeroE6-hACE2 cells (blocks RBD-ACE2)” value [1] is on record?
Its value is 0.042 µg/mL.

B2: sybody MR17 (VHH)
VHH: QVQLVESGGGLVQAGGSLRLSCAASGFPVEVWRMEWYRQAPGKEREGVAAIESYGHGTRYADSVKGRFTISRDNAKNTVYLQMNSLKPEDTAVYYCNVKDDGQLAYHYDYWGQGTQVTVS
Which Kd [2] does the source give for B2 here?
Its Kd is 83.7 nM.

B3: sybody LR1 (VHH)
VHH: QVQLVESGGGSVQAGGSLRLSCAASGSISSITYLGWFRQAPGKEREGVAALITDSGRTYYADSVKGRFTVSLDNAKNTVYLQMNSLKPEDTALYYCAAAEWGYEWPLYYASSWYWGQGTQVTVS
Does B3 bind [3]?
Result: binds

B4: sybody LR5 (VHH)
VHH: B3 VHH with D54S, S55N, E100T, E104H, Y108G, Y109A, A110W, S111D, S112Y
Does B4 bind [3]?
Result: binds

B5: sybody MR3 (VHH)
VHH: QVQLVESGGGLVQAGGSLRLSCAASGFPVNAHFMYWYRQAPGKEREWVAAIYSYGRTLYADSVKGRFTISRDNAKNTVYLQMNSLKPEDTAVYYCNVKDYGAASWEYDYWGQGTQVTVS
How did the Kd [2] turn out when B5 was run?
The Kd was 1 nM.

What about the koff [2] of the same binder?
Its koff is 0.00023 s⁻¹.

What about the “IC50 of neutralisation of SARS-CoV-2 S pseudovirus on VeroE6-hACE2 cells (blocks RBD-ACE2)” value [4] of the same binder?
The value was 0.42 µg/mL.

B6: sybody SR4 (VHH)
VHH: QVQLVESGGGLVQAGGSLRLSCAASGFPVYSWNMWWYRQAPGKEREWVAAIESHGDSTRYADSVKGRFTISRDNAKNTVYLQMNSLKPEDTAVYYCYVWVGHTYYGQGTQVTVS
Does B6 bind [5]?
Result: binds

Does B6 bind [6]?
Result: binds

B7: sybody MR4 (VHH)
VHH: QVQLVESGGGLVQAGGSLRLSCAASGFPMYAWEMAWYRQAPGKEREWVAAIRSMGVHTHYSDSVKGRFTISRDNAKNTVYLQMNSLKPEDTAVYYCNVKDFGGHQAYYDYWGQGTQVTVS
Does B7 bind [3]?
Result: binds
